In patent publication US11504441B2, “Radiolabeled compounds targeting the prostate-specific membrane antigen” (PROVINCIAL HEALTH SERVICES AUTHORITY, priority 2019, dated 2022):

Assay: in vivo
Design: species or system mice
Conditions: male, NODSCID 1L2RγKO, mouse, iv, total radioactivity

## COc1ccc(CCCC(=O)NCC(=O)N[C@@H](CCCCNC(=O)CN2CCN(CC(=O)O)CCN(CC(=O)O)CCN(CC(=O)O)CC2)C(=O)NC[C@H]2CC[C@H](C(=O)N[C@@H](Cc3c4ccccc4cc4ccccc34)C(=O)NCCCC[C@H](NC(=O)N[C@@H](CCCC(=O)O)C(=O)O)C(=O)O)CC2)cc1 [177Lu-HTK03170, metal not drawn]
Adrenal glands uptake
  tissue uptake at 1 h: 3.34 ± 0.45 %ID/g
  tissue uptake at 4 h: 1.78 ± 0.45 %ID/g
  tissue uptake at 24 h: 0.5 ± 0.16 %ID/g
  tissue uptake at 72 h: 0.27 ± 0.11 %ID/g
  tissue uptake at 120 h: 0.22 ± 0.18 %ID/g
Blood uptake
  tissue uptake at 1 h: 16.9 ± 1.97 %ID/g
  tissue uptake at 4 h: 8.34 ± 1.67 %ID/g
  tissue uptake at 24 h: 0.59 ± 0.13 %ID/g
  tissue uptake at 72 h: 0.06 ± 0.02 %ID/g
  tissue uptake at 120 h: 0.02 ± 0.01 %ID/g
Bone uptake
  tissue uptake at 1 h: 0.89 ± 0.27 %ID/g
  tissue uptake at 4 h: 0.45 ± 0.13 %ID/g
  tissue uptake at 24 h: 0.06 ± 0.04 %ID/g
  tissue uptake at 72 h: 0.03 ± 0.02 %ID/g
  tissue uptake at 120 h: 0.02 ± 0.01 %ID/g
Brain uptake
  tissue uptake at 1 h: 0.23 ± 0.04 %ID/g
  tissue uptake at 4 h: 0.13 ± 0.03 %ID/g
  tissue uptake at 24 h: 0.02 ± 0.01 %ID/g
  tissue uptake at 72 h: 0.01 %ID/g
Fat uptake
  tissue uptake at 1 h: 1.38 ± 0.45 %ID/g
  tissue uptake at 4 h: 0.6 ± 0.13 %ID/g
  tissue uptake at 24 h: 0.12 ± 0.04 %ID/g
  tissue uptake at 72 h: 0.04 ± 0.02 %ID/g
  tissue uptake at 120 h: 0.03 ± 0.03 %ID/g
Heart uptake
  tissue uptake at 1 h: 3.6 ± 0.52 %ID/g
  tissue uptake at 4 h: 1.91 ± 0.4 %ID/g
  tissue uptake at 24 h: 0.26 ± 0.04 %ID/g
  tissue uptake at 72 h: 0.09 ± 0.03 %ID/g
  tissue uptake at 120 h: 0.04 ± 0.02 %ID/g
Intestine uptake
  tissue uptake at 1 h: 1.19 ± 0.25 %ID/g
  tissue uptake at 4 h: 0.61 ± 0.17 %ID/g
  tissue uptake at 24 h: 0.18 ± 0.07 %ID/g
  tissue uptake at 72 h: 0.14 ± 0.11 %ID/g
  tissue uptake at 120 h: 0.04 ± 0.03 %ID/g
Kidneys uptake
  tissue uptake at 1 h: 13.2 ± 1.87 %ID/g
  tissue uptake at 4 h: 9.23 ± 2.18 %ID/g
  tissue uptake at 24 h: 5.8 ± 1.24 %ID/g
  tissue uptake at 72 h: 2.56 ± 0.62 %ID/g
  tissue uptake at 120 h: 1.3 ± 0.55 %ID/g
Lacrimal uptake
  tissue uptake at 1 h: 0.27 ± 0.08 %ID/g
  tissue uptake at 4 h: 0.15 ± 0.07 %ID/g
  tissue uptake at 24 h: 0.04 ± 0.03 %ID/g
  tissue uptake at 72 h: 0.01 ± 0.01 %ID/g
Liver uptake
  tissue uptake at 1 h: 2.67 ± 0.37 %ID/g
  tissue uptake at 4 h: 1.89 ± 0.69 %ID/g
  tissue uptake at 24 h: 0.69 ± 0.27 %ID/g
  tissue uptake at 72 h: 0.36 ± 0.13 %ID/g
  tissue uptake at 120 h: 0.23 ± 0.13 %ID/g
Lungs uptake
  tissue uptake at 1 h: 8.06 ± 1.48 %ID/g
  tissue uptake at 4 h: 4.35 ± 0.82 %ID/g
  tissue uptake at 24 h: 0.72 ± 0.19 %ID/g
  tissue uptake at 72 h: 0.18 ± 0.04 %ID/g
  tissue uptake at 120 h: 0.06 ± 0.03 %ID/g
Muscle uptake
  tissue uptake at 1 h: 1.15 ± 0.19 %ID/g
  tissue uptake at 4 h: 0.58 ± 0.13 %ID/g
  tissue uptake at 24 h: 0.08 ± 0.02 %ID/g
  tissue uptake at 72 h: 0.02 ± 0.01 %ID/g
  tissue uptake at 120 h: 0.01 ± 0.01 %ID/g
Pancreas uptake
  tissue uptake at 1 h: 1.41 ± 0.31 %ID/g
  tissue uptake at 4 h: 0.74 ± 0.18 %ID/g
  tissue uptake at 24 h: 0.12 ± 0.03 %ID/g
  tissue uptake at 72 h: 0.04 ± 0.01 %ID/g
  tissue uptake at 120 h: 0.02 ± 0.02 %ID/g
Salivary uptake
  tissue uptake at 1 h: 2.43 ± 0.33 %ID/g
  tissue uptake at 4 h: 1.31 ± 0.3 %ID/g
  tissue uptake at 24 h: 0.28 ± 0.04 %ID/g
  tissue uptake at 72 h: 0.11 ± 0.03 %ID/g
  tissue uptake at 120 h: 0.05 ± 0.04 %ID/g
Seminal uptake
  tissue uptake at 1 h: 1.22 ± 0.4 %ID/g
  tissue uptake at 4 h: 0.49 ± 0.1 %ID/g
  tissue uptake at 24 h: 0.08 ± 0.02 %ID/g
  tissue uptake at 72 h: 0.04 ± 0.01 %ID/g
  tissue uptake at 120 h: 0.02 ± 0.01 %ID/g
Spleen uptake
  tissue uptake at 1 h: 1.64 ± 0.83 %ID/g
  tissue uptake at 4 h: 0.96 ± 0.29 %ID/g
  tissue uptake at 24 h: 0.45 ± 0.1 %ID/g
  tissue uptake at 72 h: 0.38 ± 0.15 %ID/g
  tissue uptake at 120 h: 0.49 ± 0.38 %ID/g
Stomach uptake
  tissue uptake at 1 h: 0.59 ± 0.12 %ID/g
  tissue uptake at 4 h: 0.42 ± 0.15 %ID/g
  tissue uptake at 24 h: 0.25 ± 0.13 %ID/g
  tissue uptake at 72 h: 0.28 ± 0.33 %ID/g
  tissue uptake at 120 h: 0.05 ± 0.08 %ID/g
Tail uptake
  tissue uptake at 1 h: 6.11 ± 3.05 %ID/g
  tissue uptake at 4 h: 2.66 ± 0.9 %ID/g
  tissue uptake at 24 h: 0.31 ± 0.06 %ID/g
  tissue uptake at 72 h: 0.19 ± 0.12 %ID/g
  tissue uptake at 120 h: 0.08 ± 0.06 %ID/g
Testes uptake
  tissue uptake at 1 h: 2.17 ± 0.32 %ID/g
  tissue uptake at 4 h: 1.83 ± 0.58 %ID/g
  tissue uptake at 24 h: 0.64 ± 0.53 %ID/g
  tissue uptake at 72 h: 0.24 ± 0.04 %ID/g
  tissue uptake at 120 h: 0.14 ± 0.06 %ID/g
Thyroid uptake
  tissue uptake at 1 h: 2.9 ± 0.41 %ID/g
  tissue uptake at 4 h: 1.62 ± 0.42 %ID/g
  tissue uptake at 24 h: 0.37 ± 0.06 %ID/g
  tissue uptake at 72 h: 0.15 ± 0.01 %ID/g
  tissue uptake at 120 h: 0.08 ± 0.05 %ID/g
Tumor uptake
  tissue uptake at 1 h: 27.2 ± 7.55 %ID/g
  tissue uptake at 4 h: 47.6 ± 13.5 %ID/g
  tissue uptake at 24 h: 57.2 ± 15.3 %ID/g
  tissue uptake at 72 h: 59.3 ± 16 %ID/g
  tissue uptake at 120 h: 61.9 ± 22.3 %ID/g
